Assay results taken from a protein production outcome set (Wang et al. 2014).

Assay: label from the status in PepcDB records
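Further: failed if final PepcDB status was selected cloned or expressed and not failed if soluble or beyond.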

Sequence: MPAPLSIVIPTLQAESSLPRLLEALIEGLPNGLIREVIVSDGGSQDATRAIAEAAGAQVLNGPPSRGGQLRHGCDAARGDWLLVLHADTLPDPGWAGVVADHIAAREDAACFRLAFRARGPGAAWVAGWANLRTRLFGLPYGDQGLLIRRRDYQTAGGYPDQLLMEDVHLVRALSRAPVLLPHRALTGAERYLRSGWLRRGARNLWTLMRYFAGTDPEALARAYRRLEHHHHHH
- protein production: failed

Sequence: MEEKRLVIVGTAHVSKRSVEEVAEVIEREKPDAVAVELCPRRYHALVHGQREEISVADVIRKGNVFMLLFQLILAYFQRKVGEETGVKPGSEMLAAIEKAREAGADVLLIDRDIGLTFTRFWQKLTFVEKIKLIFHLVRSTFSGDEIEVDEMLEEDVLDMLVKEFRKISPNAAKVLIDERDVYMAANLLNALSRYNRIVAVVGAGHRKGIEEALLKLKENPV
- protein production: failed

Sequence: MKIGVLGLQGAVREHVRAIEACGAEAVIVKKSEQLEGLDGLVLPGGESTTMRRLIDRYGLMEPLKQFAAAGKPMFGTCAGLILLAKRIVGYDEPHLGLMDITVERNSFGRQRESFEAELSIKGVGDGFVGVFIRAPHIVEAGDGVDVLATYNDRIVAARQGQFLGCSFHPELTDDHRLMQYFLNMVKEAKMASSLK
- protein production: not failed

Sequence: MDPTEMRYLEEENGAMMKTFKDAVTGFATGKTSLVFIGVEQLVQNFRAKRDFFNGAHITMTKVARTHY
- protein production: failed

Sequence: MEDSGKTFSSEEEEANYWKDLAMTYKQRAENTQEELREFQEGSREYEAELETQLQQIETRNRDLLSENNRLRMELETIKEKFEVQHSEGYRQISALEDDLAQTKAIKDQLQKYIRELEQANDDLERAKRATIMSLEDFEQRLNQAIERNAFLESELDEKENLLESVQRLKDEARDLRQELAVQQKQEKPRTPMPSSVEAERTDTAVQATGSVPSTPIAHRGPSSSLNTPGSFRRGLDDSTGGTPLTPAARISALNIVGDLLRKVGALESKLASCRNLVYDQSPNRTGGPASGRSSKNRDGGERRPSSTSVPLGDKGLGKRLEFGKPPSHMSSSPLPSAQGVVKMLL
- protein production: failed

Sequence: MNVLLGSVVIFATFVTLCNASCYFIPNEGVPGDSTRKCMDLKGNKHPINSEWQTDNCETCTCYETEISCCTLVSTPVGYDKDNCQRIFKKEDCKYIVVEKKDPKKTCSVSEWII
- protein production: not failed

Sequence: MSLGAFLDKPKTEKHNAHGAGNGLRYGLSSMQGWRVEMEDAHTAVVGIPHGLEDWSFFAVYDGHAGSRVANYCSTHLLEHITTNEDFRAAGKSGSALELSVENVKNGIRTGFLKIDEYMRNFSDLRNGMDRSGSTAVGVMISPKHIYFINCGDSRAVLYRNGQVCFSTQDHKPCNPREKERIQNAGGSVMIQRVNGSLAVSRALGDYDYKCVDGKGPTEQLVSPEPEVYEILRAEEDEFIILACDGIWDVMSNEELCEYVKSRLEVSDDLENVCNWVVDTCLHKGSRDNMSIVLVCFSNEGHHHHHH
- protein production: not failed

Sequence: MMTALATVLEVQEDIVVVGCQQKTSCNHCSSKDSCGTGIVSKALPGKVHHWAFHTEKKLSVGQLVEIGLPEKNLLQSAAIVYLTPLLFLLFGALLSEWFLSPMIGLGELTTIVVSVLFALGGYQLAKRLSHHIEQKTEQQVSLLRVLGEPVSDTNLGNAAR
- protein production: failed

Sequence: SLLRFSAVSRHHRGASIDPMTFSEATTPDALTPDAHTPRLLTCDVLYTGMGGAQSPGGVVVVGETVAAAGHPDELRRQYPHAAEERAGAVIAPPPVNAHTHLDMSAYEFQALPYFQWIPEVVIRGRHLRGVAAAQAGADTLTRLGAGGVGDIVWAPEVMDALLAREDLSGTLYFEVLNPFPDKADEVFAAARTHLERWRRLERPGLRLGLSPHTPFTVSHRLMRLLSDYAAGEGLPLQIHVAEHPTELEMFRTGGGPLWDNRMPALYPHTLAEVIGREPGPDLTPVRYLDELGVLAARPTLVHMVNVTPDDIARVARAGCAVVTCPRSNHHLECGTFDWPAFAAAGVEVALGTDSVASGETLNVREEVTFARQLYPGLDPRVLVRAAVKGGQRVVGGRTPFLRRGETWQEGFRWELSRDL
- protein production: not failed

Sequence: MSTPETYKRSALNPETSLLLFLVPNPSNLTPISYTLTIPPPHEKTMLDKHGLLTQPISDVLRKLTTPMVFGMVAILLFNLVDTFFISLLGTDALAAVSFTFPVTFAVNCITMGIGVGLSASIGHLLGEGHSKHAAELTTHGIILAISLILIACALGFFTIDPLFTLLGAEDKLLPLIDEYMSIWYLTIPLLVIPMSSNSAIRATGDTKTPAKIMMLAGLINGILDPLLIFGYGPFPELGIQGAAIASAISWLGALIASFYVLTHKVKLLALPNKNTLISDWKQILTIGSPAALSNALNPISGAILMMMLASQGTVAVASYGAAQRVESLMLLVIMALTSSLSPLVAQNLGAKQPERVKEAIFLAIKFSVAFQLFLYILIVPLSIPISHLFSQDDAVQHGLWMYLICVPFSYGFQGIVMVLVSSLNAMKKPLYSFSWSFMRLFVFTLPTAWIGSQIYGMEGLFIGIAMGNVMGGISAFWYARTRIRFEDAALEERGDTKS
- protein production: failed

Sequence: VGQRSDSDHVMAEATTDKRQGHTRGRTGNDRRTQIIKVATELFREKGYYATSLDDIADRIGFTKPAIYYYFKSKEDVLFAIVNSIVDEALERFHAIAAGPGSPGERIHALLVEHTRTILRNLDANTLFYNERGLLSPEREREMRKREREYTEIMQRLYAEGVATGELLDVDPTVATATLLGAAIWTYRWYDPEGRLSADEVVEQITRLLLNGYRRPA
- protein production: not failed

Sequence: MAEDEIVVEEEQSQPQEITPVPPSSSSSPSLVVEDDDEMKLKHLEFIQVAAVYFAACFSTLYELAKDNAGPLKLGVENIEDCVRTVLAPLYEKFHDVPFKLLLFVDRKVDDVFFDVETYVPSLVKQASSQALTVATEVQRTGVVDTTKSIARSVRDKYEPAAEYYAATLWRLLNQLPLFPEVAHLVIPTAFYWSEKYNDAVRYVGDRDYFGAEYLPMIPIEKISDILEQDQCRAD
- protein production: failed

Sequence: MTSDQPIRWGIIGPGTIARTFADGVAHSRTGKLVAIATRNPSKPGLAENFPGARIVNGYEALLSDPEVDAVYISVPHTGHAEWAIKAARAGKHILVEKPIALSAYDAEAVYYEAKKAGVFAGEAFMYRVHPQTEKLVELIKSGVIGTLRIIRSSFGFNMGSYRPEHRLFANDTAGGGILDVGGYPVSMARLIAGAAEGKAFLDPEKVSGVAHLGESGVDEWASAVLKFPNEIIAEVSCSIMAQQDNVLRIIGSEGRIEVADFWFASGHKGGVGKIEIFKGGKQETIEVKEERWLYSFEADAAGDAIRAGRTEFSAPGMGWTDSIANLRVLDQWRASVGLEYGVEKAAKRTNNIAGGAVTRGNSIRQRQIPGISKPASVVTLGFEFFPNFAAASLTLDAFYEAGGNAFDTAYVYGAGKTEAIFGDWHTSRNVPREEIVLIGKGAHSPLCYPDMIAKQLDQSLARLKTDYVDIYFMHRDNTDVPVGEFVDAMDAEVKRGRIRGIFGGSNWTRARFDEAIAYAEKNGKTAPAALSNNFSLAEMLDPIWAGCVAASDDDWKKWLNEKQIPNFAWSSQGRGFFTDRAGRDKRDDEEIVRVWYSERNFGRRDRAIELANKLGRNPIHIALAYVIAQPFPVIPLIGPRTVAELEDSLSALDIRLTPDEVKWLEG
- protein production: failed

Sequence: MTDATAEQSVTADADDKPEPYNGLPGAFPYAFRATDSLLFKAYVPVALLLSVAITLVFSFGLITQLAETGSVRGGTFTFSRSFFLFVGLLLVAPLLAPVLSVARRHRRTASSVAYDRALALSAFLFIGSIYLALLTSAPAELREPTQSAVVGFFYSLPPIAGVVPPMLATLGIYLTHRLLK
- protein production: failed

Sequence: MALNNFLTFQLLLLLLRVSSESPWIVAGDVSRIPINFLELAKSPEVFDSMVRIRRKIHENPELGYEEFETSKFIRSELDLIGVKYRFPVAITGIIGYIGTGEPPFVALRADMDALPIQEAVEWEHKSKNPGKMHACGHDGHVAMLLGAAKILQQHRQHLQGTVVLIFQPAEEGLSGAKMMREEGALKNVEAIFGIHLSPRTPFGKAASLAGSFMAGAGAFEAVITGKGGHAAIPQHTIDPVVAASSIVLSLQHLVSRETDPSDSKVVTVTKVNGGNAFNVIPDSITIGGTLRAFTGFTQLQERIKEIITKQAAVHRCNASVNLAPNGNQPMPPTVNNMDLYKKFKKVVRDLLGQEAFVEAVPEMGSEDFSYFAETIPGHFSLLGMQDETQGYASSHSPHYRINEDVLPYGAAIHATMAVQYLKDKASKGSVSGFHDEL
- protein production: not failed

Sequence: KQVAEIGDRAVELVHDGSLLAPEDMGPYVAPIAFNALPFAGNLVEDGTEETDEEQKLRNESRKILGLPDLKVAGTCVRVPVFTGHTMVVHAEFNNAITPEQAREVLGNAAGVDVVDVPTPLAAAGVDNSLVGRIRQDQTVDDNKGLVFVVSGDNLRKGAALNAIQIAELLV
- protein production: failed
